How the values were obtained:
[1] = target: T1, human hepsin (recombinant EE-tagged, amino acids 45-417, enzymatically active two-chain form) (human, UniProt P05981 45-417); assay: cell-based or functional assay
[2] = target: cynomolgus hepsin (cynomolgus monkey); assay: cell-based or functional assay
[3] = target: T1, human hepsin (recombinant EE-tagged, …); assay: SPR kinetics, antibody captured on CM5 chip, hepsin injected, 298 K
[4] = target: T1, human hepsin (recombinant EE-tagged, …); assay: enzyme kinetics (Ac-KQLR-AMC hydrolysis after preincubation), fit to tight binding inhibitor equations of the mixed type; apparent Ki
[5] = target: T1, human hepsin (recombinant EE-tagged, …); assay: Biacore (SPR)
[6] = target: mouse hepsin (mouse, UniProt O35453 60-436, limits assumed); assay: cell-based or functional assay
Sequence of mouse hepsin (O35453 60-436 limits assumed): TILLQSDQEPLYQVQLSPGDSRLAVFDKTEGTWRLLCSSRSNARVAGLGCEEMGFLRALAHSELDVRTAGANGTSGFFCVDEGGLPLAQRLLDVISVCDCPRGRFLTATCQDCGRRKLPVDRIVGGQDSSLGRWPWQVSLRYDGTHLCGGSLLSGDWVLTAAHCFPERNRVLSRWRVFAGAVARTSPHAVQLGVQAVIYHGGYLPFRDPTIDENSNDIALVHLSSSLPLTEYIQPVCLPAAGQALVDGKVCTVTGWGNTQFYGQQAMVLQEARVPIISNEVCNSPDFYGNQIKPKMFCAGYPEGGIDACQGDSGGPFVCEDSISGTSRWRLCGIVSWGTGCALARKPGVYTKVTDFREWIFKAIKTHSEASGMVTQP

T1 sequence (P05981 other isoform, or with tags, fused parts or gaps limits assumed): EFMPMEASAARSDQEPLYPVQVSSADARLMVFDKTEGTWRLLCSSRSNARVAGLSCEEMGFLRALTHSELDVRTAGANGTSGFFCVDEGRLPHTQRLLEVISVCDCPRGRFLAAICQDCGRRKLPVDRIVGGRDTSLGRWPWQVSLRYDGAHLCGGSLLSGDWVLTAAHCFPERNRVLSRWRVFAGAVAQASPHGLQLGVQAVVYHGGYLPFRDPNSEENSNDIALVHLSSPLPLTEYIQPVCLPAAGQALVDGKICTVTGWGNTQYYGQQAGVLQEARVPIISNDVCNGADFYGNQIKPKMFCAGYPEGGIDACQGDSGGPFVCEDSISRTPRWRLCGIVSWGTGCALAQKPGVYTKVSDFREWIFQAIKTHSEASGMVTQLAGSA

B1: Mab55 (antibody, V domains shown)
VH: QVQLVQSGSELKKPGASVKVSCKASGYTFTDYSMRWVRQAPGQGLEWMGWINTETGSPTYADDFKGRFVFSLDTSVSTAYLQISSLKAEDTAVYYCARGFAYWGQGTLVTVSS
VL: QTVVTQEPSLTVSPGGTVTLTCRSSTGAVTTSNYANWVQQKPGQAFRGLIGDTNNRAPWTPARFSGSLLGGKAALTLSGVQPEDEAEYYCALWYSNHFIFGSGTKVTVL
notes: Humanized variant of Mab 2.7.35, stably expressed in CHO; also called hH35; humanized antibody Mab55
Q: For B1, which “IC 50, human hepsin inhibition assay (FRET peptide substrate)” value [1] is on record?
A: Its value is 1.02 nM.

Q: And the “inhibition increase compared to the chimeric antibody” value [1]?
A: The value was 6.7 fold.

Q: What about the “inhibition increase compared to the murine antibody” value [1] of the same binder?
A: The value was 14.7 fold.

Q: What about the “IC 50, cynomolgous hepsin assay (FRET peptide substrate)” value [2] of the same binder?
A: Its value is 0.99 nM.

Q: What about the Kd [3] of the same binder?
A: The Kd was 7.1 nM.

Q: And the Ki [4]?
A: The Ki was 0.39 nM.

B2: Mab53 (antibody, V domains shown)
VH: QVQLVQSGAEVKKPGASVKVSCKASGYTFTDYSMRWVRQAPGQGLEWMGWINTETGNPAYAQKFQGRVTMTRDTSTSTVYMELSSLRSEDTAVYYCARGFAYWGQGTLVTVSS
VL: QTVVTQEPSLTVSPGGTVTLTCRSSTGAVTTSNYANWVQQKPGQAFRGLIGDTNNRAPWTPARFSGSLLGGKAALTLSGVQPEDEAEYYCALWYSNHFIFGSGTKVTVL
notes: Humanized variant of Mab 2.7.35
Q: B2 was tested. Which Kd [3] did it give?
A: Its Kd is 36 nM.

B3: Mab 2.7.35 (antibody, V domains shown)
VH: QIQLVQSGPELKKPGETVKISCKASGYTFTDYSMRWVKQAPGKGLKWMGWINTETGNPTYADDFKGRFAFSLETSASTAYLQINNLKNEDTARYFCARGFAYWGQGTLVTVSA
VL: QAVVTQESALTTSPGETVTLTCRSSTGAVTTSNYANWVQEKPDHLFTGLIGDTNNRAPGVPARFSGSLIGDKAALTITGAQTEDEAIYFCALWYSNHFIFGSGTKVTVL
notes: Mouse monoclonal antibody from Balb/c hybridoma; also called mouse Mab 2.7.35; mH35
Q: How did the Kd [5] turn out when B3 was run?
A: Its Kd is 4 nM.

Q: What about the “IC 50 in enzymatic activity assay of murine hepsin” value [6] of the same binder?
A: Its value is over 200 nM.

Q: And the “IC 50 in enzymatic activity assay of human hepsin” value [1]?
A: Its value is 14 nM.

Q: What about the Kd [3] of the same binder?
A: The Kd was 31.5 nM.

B4: Mab 2.3.35 (antibody, V domains shown)
VH: QVQLQQSGPELVKPGASVKVSCKASGYTFTDFVINWVKQRTGQGLEWIGEIYPRSNSIYSNEKFKGKATLTTDKSSNTAYMQVSSLTSEDSAVYFCARGSGDYAMDYWGQGTSVTVSS
VL: ENVLTQSPAIMSASPGEKVTMTCSASSSVTYMHWYQQKSSTSPKLWIYDTSKLASGVPGRFSGSGSGNSYSLTIRSMEAEDVATYFCFQGSGFPLTFGGGTKLEIK
notes: also called antibody 2.3.35
Q: With B4 as the binder, how does the Kd [5] read?
A: The Kd was 22 nM.

Q: And the “IC 50 in enzymatic activity assay of human hepsin” value [1]?
A: Its value is 7 nM.

Reference: patent WO2011161189A1 (dated 2011)
